Results: patent US20190271021A1 (Hoffmann-La Roche, published 2019)

What was measured:
[1] = target: T1, human TrkB on CHO cells (CHO-K1-hTrkB/pSRE-Luc) (human, UniProt Q16620 32-822); assay: cell-based or functional assay
[2] = target: T1, human TrkB on CHO cells …; assay: cell-based or functional assay; remark: listed apart in the source
[3] = target: T2, TrkB-Fc fusion (R&D Systems) (UniProt Q16620 32-430); assay: TrkB ELISA, plate coated with TrkB-Fc, detection with anti-BDNF antibody
T2 construct: the ELISA paragraph says only TrkB-Fc fusion (R&D Systems); also called Human Fc-tagged TrkB; not shown: Fc part of the bought fusion
Protocol: The binding properties of BDNF-containing fusion proteins were determined with a TrkB ELISA. Maxisorb plates were coated with 1 μg/mL of a TrkB-Fc fusion (R&D Systems) in PBS overnight at 4° C. After blocking the plate with PBSTC (PBS with 0.05% Tween-20 and 2% Chicken serum (Gibco)) for 1 h at RT and three washes with PBST, BDNF-containing fusion proteins or BDNF alone were added to the wells at concentrations of 15 to 500 ng/mL in PBSTC and incubated for 2 h at RT. After six washes, the wells were incubated with mouse-anti-BDNF antibody (clone 4F11.1A1, 1 μg/mL in PBSTC) and, after further washes, with anti-mouse-HRP antibody (1:10000 in PBSTC), both for 1 h at RT. After three washes with PBST, HRP activity was detected using ABTS substrate and photometric quantification at a wavelength of 492 nm.

T2 sequence (Q16620 32-430 limits assumed): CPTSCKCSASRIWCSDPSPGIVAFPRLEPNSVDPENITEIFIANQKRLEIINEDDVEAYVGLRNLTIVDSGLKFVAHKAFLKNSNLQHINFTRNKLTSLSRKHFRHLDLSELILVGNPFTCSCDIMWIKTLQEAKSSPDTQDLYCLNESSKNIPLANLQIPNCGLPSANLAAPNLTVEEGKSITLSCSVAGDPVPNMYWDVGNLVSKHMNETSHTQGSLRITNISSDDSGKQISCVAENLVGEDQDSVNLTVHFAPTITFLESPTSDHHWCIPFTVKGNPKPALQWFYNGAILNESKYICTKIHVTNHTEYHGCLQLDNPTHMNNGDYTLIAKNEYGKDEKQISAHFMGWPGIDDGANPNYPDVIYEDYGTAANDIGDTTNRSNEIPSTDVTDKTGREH
T1 sequence (Q16620 32-822): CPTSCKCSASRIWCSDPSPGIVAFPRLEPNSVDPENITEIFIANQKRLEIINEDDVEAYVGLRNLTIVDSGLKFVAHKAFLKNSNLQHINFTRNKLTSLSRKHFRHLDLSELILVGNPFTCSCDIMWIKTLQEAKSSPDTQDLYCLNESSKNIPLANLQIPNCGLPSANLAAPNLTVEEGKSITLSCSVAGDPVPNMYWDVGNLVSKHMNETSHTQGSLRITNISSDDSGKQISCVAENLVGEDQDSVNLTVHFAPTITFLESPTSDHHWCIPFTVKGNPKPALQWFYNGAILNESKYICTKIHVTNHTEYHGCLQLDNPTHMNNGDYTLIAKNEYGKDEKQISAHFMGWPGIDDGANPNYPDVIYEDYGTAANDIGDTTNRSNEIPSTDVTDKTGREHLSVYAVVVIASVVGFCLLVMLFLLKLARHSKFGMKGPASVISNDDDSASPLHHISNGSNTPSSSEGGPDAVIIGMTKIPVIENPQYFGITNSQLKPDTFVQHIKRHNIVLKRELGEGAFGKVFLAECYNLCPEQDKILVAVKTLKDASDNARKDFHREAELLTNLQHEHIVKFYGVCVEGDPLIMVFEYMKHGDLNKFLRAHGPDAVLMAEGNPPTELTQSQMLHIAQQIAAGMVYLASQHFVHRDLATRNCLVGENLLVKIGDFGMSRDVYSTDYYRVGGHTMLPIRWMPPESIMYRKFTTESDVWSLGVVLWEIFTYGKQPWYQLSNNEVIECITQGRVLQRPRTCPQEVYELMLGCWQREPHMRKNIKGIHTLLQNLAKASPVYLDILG

B1: wild-type BDNF (E. coli) (ligand)
chain: HSDPARRGELSVCDSISEWVTAADKKTAVDMSGGTVTVLEKVPVSKGQLKQYFYETKCNPMGYTKEGCRGIDKRHWNSQCRTTQSYVRALTMDSKKRIGWRFIRIDTSCVCTLTIKRGR
notes: No tag, no linker, RGR not deleted; also called wt-BDNF; non-glycosylated mature wild-type BDNF
relative BDNF activity in TrkB luciferase assay, EC50 [%] [1]: 60%
BDNF activity in TrkBluciferase assay, EC50 [% or nM] [2]: 0.44 nM
EC50 [3]: 5.7 nM

B2: pre-pro-BDNF(-RGR)-T7-His6 (ligand)
chain: HSDPARRGELSVCDSISEWVTAADKKTAVDMSGGTVTVLEKVPVSKGQLKQYFYETKCNPMGYTKEGCRGIDKRHWNSQCRTTQSYVRALTMDSKKRIGWRFIRIDTSCVCTLTIKGSGMASMTGGQQMGHHHHHH
notes: Entry is the pre-pro precursor as expressed (HEK293); values normalized to maturated BDNF; also called pp-BDNF; parental construct
EC50 [3]: 8.9 nM

B3: complex of pre-pro-BDNF(-RGD)_(G4S)2GG_VH<IGF-1R>-CH1-His6, anti-IGF-1R antibody light chain and not-fused pre-pro-BDNF(-RGR)-T7-His6 (other)
heavy: HSDPARRGELSVCDSISEWVTAADKKTAVDMSGGTVTVLEKVPVSKGQLKQYFYETKCNPMGYTKEGCRGIDKRHWNSQCRTTQSYVRALTMDSKKRIGWRFIRIDTSCVCTLTIKGGGGSGGGGSGGQVELVESGGGVVQPGRSQRLSCAASGFTFSSYGMHWVRQAPGKGLEWVAIIWFDGSSTYYADSVRGRFTISRDNSKNTLYLQMNSLRAEDTAVYFCARELGRRYFDLWGRGTLVSVSSASTKGPSVFPLAPSSKSTSGGTAALGCLVKDYFPEPVTVSWNSGALTSGVHTFPAVLQSSGLYSLSSVVTVPSSSLGTQTYICNVNHKPSNTKVDKKVGSGHHHHHH
light: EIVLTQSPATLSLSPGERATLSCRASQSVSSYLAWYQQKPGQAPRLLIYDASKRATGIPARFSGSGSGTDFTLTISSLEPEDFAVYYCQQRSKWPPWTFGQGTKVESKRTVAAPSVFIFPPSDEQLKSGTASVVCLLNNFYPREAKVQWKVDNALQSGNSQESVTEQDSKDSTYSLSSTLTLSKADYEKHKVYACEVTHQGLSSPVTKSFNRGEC
chain: HSDPARRGELSVCDSISEWVTAADKKTAVDMSGGTVTVLEKVPVSKGQLKQYFYETKCNPMGYTKEGCRGIDKRHWNSQCRTTQSYVRALTMDSKKRIGWRFIRIDTSCVCTLTIKGSGMASMTGGQQMGHHHHHH
notes: BDNF-Fab fusion co-expressed with light chain and not-fused BDNF; BDNF entries are pre-pro precursors
EC50 [3]: 6.1 nM

B4: pre-pro-BDNF(-RGD)_(G4S)2GG_VH<IGF-1R>-CH1-His6 with anti-IGF-1R antibody light chain (other)
heavy: HSDPARRGELSVCDSISEWVTAADKKTAVDMSGGTVTVLEKVPVSKGQLKQYFYETKCNPMGYTKEGCRGIDKRHWNSQCRTTQSYVRALTMDSKKRIGWRFIRIDTSCVCTLTIKGGGGSGGGGSGGQVELVESGGGVVQPGRSQRLSCAASGFTFSSYGMHWVRQAPGKGLEWVAIIWFDGSSTYYADSVRGRFTISRDNSKNTLYLQMNSLRAEDTAVYFCARELGRRYFDLWGRGTLVSVSSASTKGPSVFPLAPSSKSTSGGTAALGCLVKDYFPEPVTVSWNSGALTSGVHTFPAVLQSSGLYSLSSVVTVPSSSLGTQTYICNVNHKPSNTKVDKKVGSGHHHHHH
light: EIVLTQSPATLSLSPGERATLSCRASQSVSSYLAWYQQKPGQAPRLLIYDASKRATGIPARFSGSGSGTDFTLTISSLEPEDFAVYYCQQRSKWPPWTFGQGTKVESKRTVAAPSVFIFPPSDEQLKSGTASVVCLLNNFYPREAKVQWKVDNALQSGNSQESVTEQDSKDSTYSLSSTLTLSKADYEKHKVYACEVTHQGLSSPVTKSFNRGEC
notes: BDNF part of the entry is the pre-pro precursor
EC50 [3]: 17 nM

B5: pre-pro-BDNF(-RGD)_(G4S)4GG_VH<IGF-1R>-CH1-His6 with anti-IGF-1R antibody light chain (other)
heavy: HSDPARRGELSVCDSISEWVTAADKKTAVDMSGGTVTVLEKVPVSKGQLKQYFYETKCNPMGYTKEGCRGIDKRHWNSQCRTTQSYVRALTMDSKKRIGWRFIRIDTSCVCTLTIKGGGGSGGGGSGGGGSGGGGSGGQVELVESGGGVVQPGRSQRLSCAASGFTFSSYGMHWVRQAPGKGLEWVAIIWFDGSSTYYADSVRGRFTISRDNSKNTLYLQMNSLRAEDTAVYFCARELGRRYFDLWGRGTLVSVSSASTKGPSVFPLAPSSKSTSGGTAALGCLVKDYFPEPVTVSWNSGALTSGVHTFPAVLQSSGLYSLSSVVTVPSSSLGTQTYICNVNHKPSNTKVDKKVGSGHHHHHH
light: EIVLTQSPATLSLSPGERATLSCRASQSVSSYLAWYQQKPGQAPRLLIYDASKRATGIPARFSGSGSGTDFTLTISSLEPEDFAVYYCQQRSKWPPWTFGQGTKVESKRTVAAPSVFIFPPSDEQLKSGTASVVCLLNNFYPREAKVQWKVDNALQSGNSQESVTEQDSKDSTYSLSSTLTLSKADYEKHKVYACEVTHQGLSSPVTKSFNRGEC
notes: as for B4
EC50 [3]: 13.5 nM

B6: pre-pro-BDNF(-RGD)_(G4S)6GG_VH<IGF-1R>-CH1-His6 with anti-IGF-1R antibody light chain (other)
heavy: HSDPARRGELSVCDSISEWVTAADKKTAVDMSGGTVTVLEKVPVSKGQLKQYFYETKCNPMGYTKEGCRGIDKRHWNSQCRTTQSYVRALTMDSKKRIGWRFIRIDTSCVCTLTIKGGGGSGGGGSGGGGSGGGGSGGGGSGGGGSGGQVELVESGGGVVQPGRSQRLSCAASGFTFSSYGMHWVRQAPGKGLEWVAIIWFDGSSTYYADSVRGRFTISRDNSKNTLYLQMNSLRAEDTAVYFCARELGRRYFDLWGRGTLVSVSSASTKGPSVFPLAPSSKSTSGGTAALGCLVKDYFPEPVTVSWNSGALTSGVHTFPAVLQSSGLYSLSSVVTVPSSSLGTQTYICNVNHKPSNTKVDKKVGSGHHHHHH
light: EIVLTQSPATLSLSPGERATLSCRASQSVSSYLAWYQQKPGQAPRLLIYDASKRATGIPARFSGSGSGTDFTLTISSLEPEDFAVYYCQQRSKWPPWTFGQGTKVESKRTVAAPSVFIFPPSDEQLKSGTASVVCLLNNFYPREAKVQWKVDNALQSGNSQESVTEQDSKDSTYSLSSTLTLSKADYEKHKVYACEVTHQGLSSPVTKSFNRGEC
notes: as for B4
EC50 [3]: 18.5 nM
